The values that follow come from US20210032352A1 (ANTERA THERAPEUTICS, published 2021).

One experiment has as its target T1, 85BSA (Bos taurus, UniProt P02769).
T1 construct: also called bovine serum albumin
The experiment is described as follows: ELISA of the IgG on hLRP6, mLRP6, mLRP5, Fc and BSA. Background: In an ELISA, binding on a coated surface is turned into a signal by an enzyme label.

Experiment [1] addresses T2, mouse LRP6 ECD, Fc-tagged (mouse, UniProt O88572 20-1370).
T2 construct: extracellular domain; Bought; not shown: Fc tag of the purchased fusion
T2 sequence (looked up): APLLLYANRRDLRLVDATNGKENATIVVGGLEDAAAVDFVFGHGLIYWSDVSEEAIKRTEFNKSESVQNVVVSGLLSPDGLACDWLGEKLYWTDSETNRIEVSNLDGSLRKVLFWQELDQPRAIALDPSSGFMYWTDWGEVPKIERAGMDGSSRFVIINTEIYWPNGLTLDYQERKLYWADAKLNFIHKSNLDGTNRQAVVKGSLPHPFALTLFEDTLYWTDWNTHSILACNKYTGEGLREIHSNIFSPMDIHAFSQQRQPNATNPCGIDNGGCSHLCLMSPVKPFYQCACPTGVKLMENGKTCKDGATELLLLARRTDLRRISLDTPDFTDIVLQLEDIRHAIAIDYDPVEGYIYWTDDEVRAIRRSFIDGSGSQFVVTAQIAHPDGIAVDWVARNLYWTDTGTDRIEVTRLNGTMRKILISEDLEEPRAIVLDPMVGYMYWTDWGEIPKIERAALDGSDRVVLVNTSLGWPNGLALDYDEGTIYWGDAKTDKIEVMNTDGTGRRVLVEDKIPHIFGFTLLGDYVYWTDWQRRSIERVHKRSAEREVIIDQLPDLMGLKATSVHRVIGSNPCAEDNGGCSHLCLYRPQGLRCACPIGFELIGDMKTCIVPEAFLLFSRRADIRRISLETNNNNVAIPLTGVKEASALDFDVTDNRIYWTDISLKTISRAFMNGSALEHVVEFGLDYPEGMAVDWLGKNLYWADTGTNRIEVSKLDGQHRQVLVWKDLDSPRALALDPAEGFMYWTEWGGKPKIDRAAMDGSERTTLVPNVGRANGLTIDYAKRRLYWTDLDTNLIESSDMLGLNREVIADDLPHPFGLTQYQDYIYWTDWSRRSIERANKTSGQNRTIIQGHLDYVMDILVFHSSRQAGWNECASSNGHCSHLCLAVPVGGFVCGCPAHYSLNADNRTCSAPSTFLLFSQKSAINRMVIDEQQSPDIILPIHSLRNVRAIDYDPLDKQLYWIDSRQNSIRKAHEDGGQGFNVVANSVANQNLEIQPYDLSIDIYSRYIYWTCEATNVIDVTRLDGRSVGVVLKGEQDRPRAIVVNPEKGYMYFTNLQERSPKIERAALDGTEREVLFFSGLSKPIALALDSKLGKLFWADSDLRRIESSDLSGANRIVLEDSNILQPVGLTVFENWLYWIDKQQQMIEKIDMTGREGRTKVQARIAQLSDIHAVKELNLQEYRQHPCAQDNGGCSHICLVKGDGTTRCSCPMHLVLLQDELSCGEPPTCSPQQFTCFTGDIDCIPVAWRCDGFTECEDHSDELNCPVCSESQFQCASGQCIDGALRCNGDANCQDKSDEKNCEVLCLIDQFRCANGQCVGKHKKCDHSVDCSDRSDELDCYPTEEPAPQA
The description is as above.

Experiment [2] has as its target T3, mouse LRP5 ECD, Fc-tagged (mouse, UniProt Q91VN0 31-1383).
T3 construct: extracellular domain; Bought; not shown: Fc tag of the purchased fusion
T3 sequence (looked up): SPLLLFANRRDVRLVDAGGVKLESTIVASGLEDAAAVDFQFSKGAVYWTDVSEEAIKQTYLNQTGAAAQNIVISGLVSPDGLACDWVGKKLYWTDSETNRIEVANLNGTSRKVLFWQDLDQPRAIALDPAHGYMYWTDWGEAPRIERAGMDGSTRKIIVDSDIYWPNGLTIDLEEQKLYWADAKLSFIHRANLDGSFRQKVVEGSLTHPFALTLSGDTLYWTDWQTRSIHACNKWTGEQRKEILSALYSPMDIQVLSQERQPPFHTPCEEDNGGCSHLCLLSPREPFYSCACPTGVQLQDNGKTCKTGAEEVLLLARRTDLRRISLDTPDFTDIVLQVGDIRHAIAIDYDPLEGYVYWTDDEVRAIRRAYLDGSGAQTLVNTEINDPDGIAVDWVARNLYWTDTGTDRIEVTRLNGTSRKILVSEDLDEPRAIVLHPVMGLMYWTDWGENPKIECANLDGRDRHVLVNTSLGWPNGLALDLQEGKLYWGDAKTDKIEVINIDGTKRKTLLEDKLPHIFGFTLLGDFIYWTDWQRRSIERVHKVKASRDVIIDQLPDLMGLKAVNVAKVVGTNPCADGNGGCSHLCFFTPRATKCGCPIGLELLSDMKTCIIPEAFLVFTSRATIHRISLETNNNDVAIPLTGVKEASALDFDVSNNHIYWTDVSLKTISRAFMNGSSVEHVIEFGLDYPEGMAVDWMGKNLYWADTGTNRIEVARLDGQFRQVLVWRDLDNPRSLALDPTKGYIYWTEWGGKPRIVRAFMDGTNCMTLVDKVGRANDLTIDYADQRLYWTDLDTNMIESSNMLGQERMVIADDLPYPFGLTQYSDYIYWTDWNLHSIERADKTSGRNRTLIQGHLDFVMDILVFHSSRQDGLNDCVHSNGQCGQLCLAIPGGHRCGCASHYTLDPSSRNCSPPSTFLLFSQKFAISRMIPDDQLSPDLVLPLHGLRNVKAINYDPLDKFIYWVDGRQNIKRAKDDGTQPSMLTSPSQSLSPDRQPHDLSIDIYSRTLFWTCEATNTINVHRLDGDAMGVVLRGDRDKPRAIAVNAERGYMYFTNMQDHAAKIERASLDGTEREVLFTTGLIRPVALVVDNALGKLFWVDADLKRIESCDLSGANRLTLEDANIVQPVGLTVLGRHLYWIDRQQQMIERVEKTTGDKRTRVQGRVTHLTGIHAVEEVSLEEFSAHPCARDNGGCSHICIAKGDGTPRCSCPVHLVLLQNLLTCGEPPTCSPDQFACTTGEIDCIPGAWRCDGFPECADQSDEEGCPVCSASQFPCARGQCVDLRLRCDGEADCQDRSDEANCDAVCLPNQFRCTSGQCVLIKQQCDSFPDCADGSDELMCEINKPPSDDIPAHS
The experiment is described as above.

For another experiment, the target named is T4, FZD2 CRD, Fc-tagged (human, UniProt Q14332 24-190).
T4 construct: domain: CRD; Bought; not shown: Fc tag of the purchased fusion
The experiment is described as follows: kinetic table of the Fab; KD marked '**…'; the printed KD is not kd/ka of the same column; method not named for this figure.

For the next experiment, the target named is T5, FZD5 CRD, Fc-tagged (human, UniProt Q13467 27-167).
T5 construct: domain: CRD; Bought; also called FZD5 ECD; not shown: Fc tag of the purchased fusion
T5 sequence (looked up): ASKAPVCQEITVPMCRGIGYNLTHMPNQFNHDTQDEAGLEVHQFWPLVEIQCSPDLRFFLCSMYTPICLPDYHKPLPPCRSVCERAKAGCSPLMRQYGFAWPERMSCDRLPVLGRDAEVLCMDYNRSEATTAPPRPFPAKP
The description is as above.

The next experiment concerns the target T6, FZD1 CRD, Fc-tagged (human, UniProt Q9UP38 70-250).
T6 construct: domain: CRD; Bought; not shown: Fc tag of the purchased fusion
Described as above.

For a further experiment, the target named is T7, FZD8 CRD, Fc-tagged (human, UniProt Q9H461 28-158).
T7 construct: domain: CRD; Bought; not shown: Fc tag of the purchased fusion
T7 sequence (looked up): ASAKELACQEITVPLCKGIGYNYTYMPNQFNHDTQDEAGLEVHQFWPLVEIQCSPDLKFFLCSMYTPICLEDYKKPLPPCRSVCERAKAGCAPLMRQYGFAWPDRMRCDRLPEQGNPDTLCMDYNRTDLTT
The description is as above.

The target of a further experiment is FZD7 CRD, Fc-tagged (human, UniProt O75084 33-185). The description is as above.

Numbering of substitutions follows the chain as printed.

For orientation: Kd means a measure of binding affinity in units of concentration. A low value points to tighter binding.

T1 sequence (P02769 25-607 limits assumed): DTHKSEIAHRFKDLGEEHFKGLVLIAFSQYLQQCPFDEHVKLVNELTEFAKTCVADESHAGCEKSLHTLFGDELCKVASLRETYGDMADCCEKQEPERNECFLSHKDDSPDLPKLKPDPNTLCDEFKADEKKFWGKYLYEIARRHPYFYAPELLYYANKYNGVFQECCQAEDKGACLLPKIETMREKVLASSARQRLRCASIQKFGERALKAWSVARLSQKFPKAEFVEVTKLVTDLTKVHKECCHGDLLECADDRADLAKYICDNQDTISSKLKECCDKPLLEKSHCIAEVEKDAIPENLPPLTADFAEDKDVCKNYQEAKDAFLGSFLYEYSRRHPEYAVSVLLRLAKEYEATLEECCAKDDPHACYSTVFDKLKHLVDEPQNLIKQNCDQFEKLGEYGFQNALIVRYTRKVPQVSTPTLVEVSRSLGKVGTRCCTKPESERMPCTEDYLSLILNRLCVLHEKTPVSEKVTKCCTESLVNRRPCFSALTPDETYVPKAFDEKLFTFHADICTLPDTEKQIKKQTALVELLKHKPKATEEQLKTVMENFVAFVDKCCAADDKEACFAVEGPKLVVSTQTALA
T6 sequence (Q9UP38 70-250): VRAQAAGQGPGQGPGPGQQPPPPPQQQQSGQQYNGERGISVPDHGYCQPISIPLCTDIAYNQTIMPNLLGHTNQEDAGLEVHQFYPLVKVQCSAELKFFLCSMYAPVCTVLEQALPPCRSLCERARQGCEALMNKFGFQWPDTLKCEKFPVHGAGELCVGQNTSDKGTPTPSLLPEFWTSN

B1: LRP6 antibody 2542 (antibody, V domains shown)
VH: EVQLVESGGGLVQPGGSLRLSCAASGFNISSYYIHWVRQAPGKGLEWVASIYSSYGYTSYADSVKGRFTISADTSKNTAYLQMNSLRAEDTAVYYCARTVRGSKKPYFSGWAMDYWGQGTLVTVSS
VL: DIQMTQSPSSLSASVGDRVTITCRASQSVSSAVAWYQQKPGKAPKLLIYSASSLYSGVPSRFSGSRSGTDFTLTISSLQPEDFATYYCQQYYWPITFGQGTKVEIK
As to B1, the binding result is reported as “no binding” with 85BSA, “binds” in experiment [1] and “no binding” in experiment [2].

B2: F^P - Fab (Fab, V domains shown)
VH: EVQLVESGGGLVQPGGSLRLSCAASGFNIGSSSIHWVRQAPGKGLEWVASIYSAFASTSYADSVKGRFTISADTSKNTAYLQMNSLRAEDTAVYYCARYHFPFGFALDYWGQGTLVTVSS
VL: B1 VL with Y91G, Y92V, W93Y, P94L, I95F
On to B2, for which the Kd in the experiment with FZD2 CRD, Fc-tagged was found to be 0.126 nM; with FZD5 CRD, Fc-tagged it was 0.11 nM; with FZD1 CRD, Fc-tagged, 0.177 nM; in the experiment with FZD8 CRD, Fc-tagged, 0.109 nM; with FZD7 CRD, Fc-tagged it was 0.142 nM.

B3: LRP6 antibody 2539 (antibody, V domains shown)
VH: EVQLVESGGGLVQPGGSLRLSCAASGFNISYSSIHWVRQAPGKGLEWVAYISSYYGYTYYADSVKGRFTISADTSKNTAYLQMNSLRAEDTAVYYCARAHYFPWAGAMDYWGQGTLVTVSS
VL: DIQMTQSPSSLSASVGDRVTITCRASQSVSSAVAWYQQKPGKAPKLLIYSASSLYSGVPSRFSGSRSGTDFTLTISSLQPEDFATYYCQQYSWGPFTFGQGTKVEIK
notes: also called L6^3
With B3, the binding result with 85BSA is reported as “no binding”; in experiment [1], “binds”; in experiment [2] it was “no binding”.
